According to US20200057047A1 (NATIONAL HEALTH RESEARCH INSTITUTES, published 2020):

Target: T1, Myc-tagged IQGAP1 (wild type) (Homo sapiens (Human), UniProt P46940 1-1657, phosphoserine at 480 where phosphorylated by GLK, as the filing reports)
T1 construct: the same molecule is used here; also called Myc-IQGAP1; IQGAP1 WT; not shown: Myc tag
Assay: co-IP of anti-Flag immunocomplexes, HEK293T cells treated with 25 µM pervanadate (FIG. 18E)
Method: (A) Silver-stained gel of anti-Flag immunoprecipitates from HEK293T cells transfected with empty vector or Flag-tagged GLK in the presence or absence of the tyrosine phosphatase inhibitor pervanadate (25 μM). Arrows indicate the positions of GLK or GLK-interacting proteins. (B) Four pervanadate-induced tyrosine phosphorylation residues of GLK proteins were listed. (C and D) Co-immunoprecipitation of anti-Flag (C) or anti-Myc (D) immunocomplexes from lysates of HEK293T cells transfected with Flag-tagged GLK, Myc-tagged IQGAP1, or both plasmids. The whole-cell lysate immunoblots before immunoprecipitation (Pre-IP) are shown at the bottom of each panel. β-Tubulin was used as the loading control. (E) Co-immunoprecipitation of anti-Flag immunocomplexes from lysates of HEK293T cells transfected with either Flag-tagged GLK or Flag-tagged GLK mutant (Y366F, Y379F, Y574F, or Y735F). HEK293T cells were treated with 25 μM pervanadate for 2 h (F) In situ PI A of HEK293T cells transfected with empty vector, 3× Flag-tagged GLK, Myc-tagged IQGAP1, or GLK together with IQGAP1 plasmids. Arrows indicate the PLA signals (red spots). Original magnification, ×40. Scale bar, 10 μm. (G) The relative PLA signal of each group per field is shown on the plot. (H) FRET assays of HEK293T cells transfected with the indicated plasmids encoding CFP- and YFP-fused GLK and IQGAP1 proteins. […]

T1 sequence (P46940 whole entry): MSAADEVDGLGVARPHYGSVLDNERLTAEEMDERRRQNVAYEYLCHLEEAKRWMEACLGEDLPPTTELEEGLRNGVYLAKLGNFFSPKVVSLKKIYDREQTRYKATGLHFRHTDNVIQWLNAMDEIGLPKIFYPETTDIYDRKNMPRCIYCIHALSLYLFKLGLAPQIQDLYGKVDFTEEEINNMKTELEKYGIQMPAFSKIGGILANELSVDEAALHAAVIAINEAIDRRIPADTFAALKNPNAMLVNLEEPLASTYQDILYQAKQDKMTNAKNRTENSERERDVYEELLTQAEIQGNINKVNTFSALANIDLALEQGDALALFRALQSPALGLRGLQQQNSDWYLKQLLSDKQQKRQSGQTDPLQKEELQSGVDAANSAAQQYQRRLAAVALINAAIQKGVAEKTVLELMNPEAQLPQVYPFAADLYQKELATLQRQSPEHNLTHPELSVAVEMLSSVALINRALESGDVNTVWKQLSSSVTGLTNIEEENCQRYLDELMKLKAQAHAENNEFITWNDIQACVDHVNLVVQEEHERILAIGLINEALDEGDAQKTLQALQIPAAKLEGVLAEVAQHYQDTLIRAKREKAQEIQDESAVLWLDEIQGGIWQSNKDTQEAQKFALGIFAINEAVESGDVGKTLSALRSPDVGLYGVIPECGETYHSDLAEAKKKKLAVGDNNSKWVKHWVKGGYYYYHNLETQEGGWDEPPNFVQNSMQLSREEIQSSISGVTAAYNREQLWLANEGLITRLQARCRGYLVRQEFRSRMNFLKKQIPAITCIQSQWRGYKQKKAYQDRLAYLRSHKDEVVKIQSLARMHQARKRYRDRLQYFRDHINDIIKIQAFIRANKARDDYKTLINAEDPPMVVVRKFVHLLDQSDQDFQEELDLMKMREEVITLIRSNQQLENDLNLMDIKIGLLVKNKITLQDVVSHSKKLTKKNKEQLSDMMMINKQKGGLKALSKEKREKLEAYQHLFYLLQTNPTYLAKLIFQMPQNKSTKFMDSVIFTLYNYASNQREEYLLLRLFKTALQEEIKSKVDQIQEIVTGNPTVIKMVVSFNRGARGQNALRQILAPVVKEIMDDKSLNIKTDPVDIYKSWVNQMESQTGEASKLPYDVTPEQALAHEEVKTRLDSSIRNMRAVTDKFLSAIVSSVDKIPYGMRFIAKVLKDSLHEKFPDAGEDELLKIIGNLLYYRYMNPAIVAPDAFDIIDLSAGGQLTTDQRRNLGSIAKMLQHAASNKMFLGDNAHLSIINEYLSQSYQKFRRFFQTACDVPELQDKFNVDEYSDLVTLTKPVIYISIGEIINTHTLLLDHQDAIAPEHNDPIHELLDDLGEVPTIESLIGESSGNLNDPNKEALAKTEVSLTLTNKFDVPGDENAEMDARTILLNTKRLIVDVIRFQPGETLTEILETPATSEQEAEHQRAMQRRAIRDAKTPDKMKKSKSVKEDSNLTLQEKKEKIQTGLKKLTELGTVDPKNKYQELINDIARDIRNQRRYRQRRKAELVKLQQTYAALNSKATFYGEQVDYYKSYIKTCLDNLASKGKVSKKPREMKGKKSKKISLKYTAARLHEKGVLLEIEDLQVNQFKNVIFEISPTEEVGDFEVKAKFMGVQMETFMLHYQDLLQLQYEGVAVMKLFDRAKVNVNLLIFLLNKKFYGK

B1: Flag-tagged GLK (Y735F) mutant (enzyme)
chain: DYKDDDDKMNPGFDLSRRNPQEDFELIQRIGSGTYGDVYKARNVNTGELAAIKVIKLEPGEDFAVVQQEIIMMKDCKHPNIVAYFGSYLRRDKLWICMEFCGGGSLQDIYHVTGPLSELQIAYVSRETLQGLYYLHSKGKMHRDIKGANILLTDNGHVKLADFGVSAQITATIAKRKSFIGTPYWMAPEVAAVERKGGYNQLCDLWAVGITAIELAELQPPMFDLHPMRALFLMTKSNFQPPKLKDKMKWSNSFHHFVKMALTKNPKKRPTAEKLLQHPFVTQHLTRSLAIELLDKVNNPDHSTYHDFDDDDPEPLVAVPHRIHSTSRNVREEKTRSEITFGQVKFDPPLRKETEPHHELPDSDGFLDSSEEIYYTARSNLDLQLEYGQGHQGGYFLGANKSLLKSVEEELHQRGHVAHLEDDEGDDDESKHSTLKAKIPPPLPPKPKSIFIPQEMHSTEDENQGTIKRCPMSGSPAKPSQVPPRPPPPRLPPHKPVALGNGMSSFQLNGERDGSLCQQQNEHRGTNLSRKEKKDVPKPISNGLPPTPKVHMGACFSKVFNGCPLKIHCASSWINPDTRDQYLIFGAEEGIYTLNLNELHETSMEQLFPRRCTWLYVMNNCLLSISGKASQLYSHNLPGLFDYARQMQKLPVAIPAHKLPDRILPRKFSVSAKIPETKWCQKCCVVRNPYTGHKYLCGALQTSIVLLEWVEPMQKFMLIKHIDFPIPCPLRMFEMLVVPEQEFPLVCVGVSRGRDFNQVVRFETVNPNSTSSWFTESDTPQTNVTHVTQLERDTILVCLDCCIKIVNLQGRLKSSRKLSSELTFDFQIESIVCLQDSVLAFWKHGMQGRSFRSNEVTQEISDSTRIFRLLGSDRVVVLESRPTDNPTANSNLYILAGHENSY
  binding result: no binding
